{
  "source": "paper PMC11019291",
  "molecular_target": "SARS-CoV-2 nucleocapsid protein (N protein) (SARS-CoV-2, UniProt P0DTC9)",
  "experiment": "SERS (surface-immobilized aptamer)",
  "conditions": "protein: recombinant; tags: C-terminal His6 (pET26); N-terminal PelB signal and vector residues",
  "data": [
    {"binder": "AAAAACGCGCGTATTCCTTAGGGGCACCGCTACACGCGCG (ssDNA, 5'-thiol)", "note": "[anti-N DNA aptamer]", "values": [
      {"measurement": "binding result", "value": "binds"}
    ]}
  ]
}
